Measured values: patent US20220324934A1 (Stanford University, published 2022)
Positions count from the first letter of the chain named.

T1: IL-2Rβ (UniProt P14784 27-240, limits assumed, biotinylated (site not stated))
T1 construct: also called CD122; IL-2Rbeta
T1 sequence (looked up): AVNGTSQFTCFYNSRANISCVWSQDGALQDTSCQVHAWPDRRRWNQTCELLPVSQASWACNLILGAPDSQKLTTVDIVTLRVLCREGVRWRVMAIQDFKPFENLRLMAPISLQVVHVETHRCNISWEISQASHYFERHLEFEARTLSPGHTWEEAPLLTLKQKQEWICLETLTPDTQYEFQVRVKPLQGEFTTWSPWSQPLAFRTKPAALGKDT

B1: Super-2 (H9) IL-2 variant, expressed as MSA fusion protein (ligand, not shown: large carriers; small tags and cut ends)
chain: APTSSSTKKTQLQLEHLLLDLQMILNGINNYKNPKLTRMLTFKFYMPKKATELKHLQCLEEELKPLEEVLNLAQSKNFHFDPRDVVSNINVFVLELKGSETTFMCEYADETATIVEFLNRWITFCQSIISTLT
notes: also called H9 super-2; MSA-H9-super-2
B2: in silico designed IL-2 variant SEQ ID NO: 16, MSA fusion protein (ligand, not shown: large carriers; small tags and cut ends)
chain: APTSSSTKKTQLQLEHLLLDLQMILNMLNNYDNPKLTRLLTFKFYMPKKATSLKHLQCLEEELKPLEEALNQAQSKNFHLDPRDLISNINVIVLELKGSETTFMCEYADETATIIEFLNRWITFCQSIISTLT
B3: in silico designed IL-2 variant SEQ ID NO: 15, MSA fusion protein (ligand, not shown: large carriers; small tags and cut ends)
chain: B2 chain with L39M, S52E
B4: in silico designed IL-2 variant SEQ ID NO: 14, MSA fusion protein (ligand, not shown: large carriers; small tags and cut ends)
chain: B2 chain with L39M, S52E, Q72L
B5: in silico designed IL-2 variant SEQ ID NO: 17, MSA fusion protein (ligand, not shown: large carriers; small tags and cut ends)
chain: B2 chain with Q72L
B6: in silico designed IL-2 variant SEQ ID NO: 4, MSA fusion protein (ligand, not shown: large carriers; small tags and cut ends)
chain: APTSSSTKKTQLQLEHLLLDLQMILNMLNNYDNPKLTRLLTFKFYMPKKATSLKHLQCLEEELKPLEEALNQAGDDPKTIRDLISNINVIVLELKGSETTFMCEYADETATIIEFLNRWITFCQSIISTLT
B7: in silico designed IL-2 variant SEQ ID NO: 1, MSA fusion protein (ligand, not shown: large carriers; small tags and cut ends)
chain: B6 chain with Q72A, L83V, I84V, I90F
B8: in silico designed IL-2 variant SEQ ID NO: 3, MSA fusion protein (ligand, not shown: large carriers; small tags and cut ends)
chain: B6 chain with Q72A
B9: in silico designed IL-2 variant SEQ ID NO: 10, MSA fusion protein (ligand)
chain: B6 chain with G74S, D75K, P77Q, T79K, I80V, L83V, I84V, I90F
notes: not shown: mouse serum albumin (MSA), fusion partner
B10: in silico designed IL-2 variant SEQ ID NO: 11, MSA fusion protein (ligand, not shown: large carriers; small tags and cut ends)
chain: B6 chain with D32S, Q72L, G74S, P77Q, K78D, T79K, I80V, L83V, I84V, I90F
B11: in silico designed IL-2 variant SEQ ID NO: 2, MSA fusion protein (ligand, not shown: large carriers; small tags and cut ends)
chain: B6 chain with S52E, Q72A
B12: in silico designed IL-2 variant SEQ ID NO: 8, MSA fusion protein (ligand, not shown: large carriers; small tags and cut ends)
chain: B6 chain with Q72A, G74D, D75S, D76T, P77D, K78E, T79R, L83V, I84V, I90F
B13: in silico designed IL-2 variant SEQ ID NO: 12, MSA fusion protein (ligand, not shown: large carriers; small tags and cut ends)
chain: B6 chain with L39M, S52E, Q72H, G74A, P77K, K78D
B14: in silico designed IL-2 variant SEQ ID NO: 13, MSA fusion protein (ligand, not shown: large carriers; small tags and cut ends)
chain: B6 chain with Y31A, D32S, K35S, L39M, S52E, Q72T, G74A, P77Q, K78D, T79K
B15: in silico designed IL-2 variant SEQ ID NO: 9, MSA fusion protein (ligand, not shown: large carriers; small tags and cut ends)
chain: B6 chain with G74D, D75S, D76T, P77D, K78S, T79R
B16: in silico designed IL-2 variant SEQ ID NO: 7, MSA fusion protein (ligand, not shown: large carriers; small tags and cut ends)
chain: B6 chain with L39M, S52E, G74D, D75S, D76T, P77D, K78E, I80V
B17: in silico designed IL-2 variant SEQ ID NO: 5, MSA fusion protein (ligand, not shown: large carriers; small tags and cut ends)
chain: B6 chain with Q72D
B18: in silico designed IL-2 variant SEQ ID NO: 6, MSA fusion protein (ligand, not shown: large carriers; small tags and cut ends)
chain: B6 chain with D32E, L39M

Biological target: T1, IL-2Rβ
Test: SPR Biacore T100, kinetic fit; biotinylated IL-2Rβ on chip
Protocol: (§1) To perform the surface plasmon resonance (SPR) analysis, the test variant protein was made in Expi293 as described previously. […] Experiments were performed on a BlAcore® T100 (GE Healthcare, Piscataway, N.J.).

Kd [µM] | koff [s⁻¹] | Binder
0.0021 | 0.0015 | B1
0.221 | 0.071 | B2
0.227 | 0.064 | B3
0.171 | 0.072 | B4
0.241 | 0.091 | B5
0.339 | 0.05 | B6
0.025 | 0.0066 | B7
0.282 | 0.042 | B8
0.105 | 0.015 | B9
0.0087 | 0.0036 | B10
0.332 | 0.055 | B11
0.0059 | 0.0044 | B12
0.0512 | 0.023 | B13
0.174 | 0.036 | B14
0.33 | 0.12 | B15
0.0567 | 0.0026 | B16
0.292 | 0.047 | B17
0.315 | 0.046 | B18

Biological target: T1, IL-2Rβ
Test: SPR Biacore T100, steady-state; biotinylated IL-2Rβ on chip
Protocol: as §1

Kd [µM] | Binder
0.0162 | B1
0.29 | B2
0.498 | B3
0.196 | B4
0.268 | B5
0.389 | B6
0.0613 | B7
0.366 | B8
0.137 | B9
0.0227 | B10
0.411 | B11
0.0142 | B12
0.0676 | B13
0.207 | B14
0.378 | B15
0.0854 | B16
0.362 | B17
0.398 | B18
